The results in this text go back to the NTF2 design screens of Basanta et al. (2020).

This data set in a line: protease stability score; higher = more stable; yeast display proteolysis, trypsin and chymotrypsin.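 Note: relative to predicted unfolded state with 0 unfolded-like and 1 meaning tenfold more protease.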
As for “DEDKEEAVRIIHEWSHAVFTGDFERELRLADPNVRLIINGRDFHGWHSLRELLNHMRLKTHHTDVKRSRSQGDFVEIDGLFNFTIHFNGRDLNVITDVKVVINKIDGRWKIESVHYE”, the protease stability score was 1.18.
With “DEDKEEIMEAIKEFLTNLQTGDEERLFELFDPHVRLKVNGQLYHGREDLVRHLSELGVKHWRLRSVEIQGEKAIMHGLVNVDGRSVRMIIEAEKVNGRWRMRHFESH”, the protease stability score was 1.84.
“DEDKEESEKFFRDMHRAAETGDWREHLRLMDPHVRLVVGEYQHHGRETFEEILTEWFERVDHQELVIRHVRVYDGVADLDGEIIYHYGDKIIFVRYTIHVRKVDGRWRIKHIRIE”: the protease stability score is 0.476.
The value for “DEDKEFMERLARMFWHSILTGDEHRISNLADPNMKLEVDGQRFHGREEMERASKERWERLGVDHIHIEDLRVVGDKVTIHTHVDINGKEWRVDIEVKIINGKIKEIRIERHEL” was 1.09.
The value for “DEDKEHIDRSLEELRRSWKTGNEEDVLRLADPHVKMIYNGRHHIGRENFEEALKILLERVDHWEDFRITDRHRQGDKVELDVESEGLVNGVTKRTEMIFIILKIDGRWLLHSLEIR” was 0.724; that for “DEDKEIADNFLKQLLRDIQTGDEDSFIERLDPNARLQVGDKHVHGMDEVLRTRREWVKLMGADHIHHVEVNHVHIQGDKVHMDVEVDVEFNGKRRRLKSHLILTKVDGQWIITMEIIK” was 1.08; that for “DEDKEIAEHNLRLLSHSRLTGDEESMHKLMDPNAKIDFNGREIHGMEWIEWLKNQLRLKHVHTEFKDSRIINGRMEVDVNLRLHLSINGKEVDFIIDVELISQKVDGRWIVRSEIYR” was 0.375.
The value for “DEDKEIAEKVAREVFHNFMTGDEDRHLELADPHTRLRVGEWENHGRDQVKRMFERQRRRFDHLERIEIKDVRIYDGVVHLHVEVHGVINGVSTTLEMRVYFVVVNGQLKRSSIHIH” was 0.373; that for “DEDKEIAKKAIEDLLRAWYTGDEEFLKNLVDPNVRSNFDGVDYHGRDEVEKFWHDHLRDLGADHVEFSLHELRIYGDKIILHTKIKFNVNGREIRRETEVISRKIDGRWLIKEIHFR” was 1.42; that for “DEDKEILHKMVEILRHALQTGDEDRLSEMFDPNVRLEINGREEWGREIFRDKHRQLGVDHLHIIIRRVHIQGEYAHIDTEYRIHVNGKTLETRVEVIALKIDGKWLIRQVIFT” was 1.14.
“DEDKEILKRAFEIYIQTVLTGDEDLFHEMADPHTRLETENETFIGREEVRRWMSEWRVDHIILKDFTAVNGRLVLRGEMDGTINGKRTHVTVTIIIHKVDGRWLLKSMSVE” had a protease stability score of 1.36.
Sequence “DEDKELAIRMIRLLMHALHTGDEDLLDELLDPNTKVDVDGQDLVGREQFLRDLRHIRIEIKDSHIHDVRVQGDKVRSHSYINGRREYDGVRLETEFRVLFIIRKVNGKWIFKSIHSL” showed a protease stability score of 1.3.
The sequence “DEDKEMIRHAVEILLKTLYTGDWETLERLLDPNARINVDGVDIHGRDVVKHWLDRADHVSIHDSHVERFRFVNGRLTIHIKEHSRFEIGDKTMRVELKRNLFILKIDGRWILESERIV” yielded a protease stability score of 1.01.
Take “DEDKENAEEAIRRLMEMILTGDEDQIRHMIDPHVRVIINGRDHHGWEELLRFWKEMRIHDVKVHDIKIINGRVNSDTKIVTEIGDFRIELEAHFIFHKFDGRWRVDSVDLR”: the protease stability score came to 1.18.
Regarding “DEDKERADEMLEYILHYILTGDEDSLRELFDPHARLHVDGRDIIGWDKFNRKLIEIRQRTRIQSEHIHIQGDKLHVDGTLRINIHYNGQHLHIDLRSIHITVKINGRWVFKFMEIR”, the protease stability score amounted to 0.829.
On to “DEDKESAEEAFKVWVRDLMTGDEDSLRRLVDPRTLVEVGDKHFHGRDMFVHLEKLQRERADHIRIELHDFDIQGEKIHLDVRVILEQGEKRVFLRTHYLILKVNGRWIVKSLWIQ”, for which the protease stability score turned out to be 0.921.
Regarding “DEDKESAERAFRILVHLWETGDEHKLERMHDPNTRYHQGDKDIHGMEKILERLSHIRIKDVKLRDIKYQGEKLEVDGEIEIEVDGRNLLLRTILFFDKVDGRWVIRSIEVR”, the protease stability score came to 1.52.
With “DEDKESAKTLVELLVEVLSTGDWKELLHLMDPNTRININGREVHGWHSMHELLRRMIEELRIKRLHLTEVRAQGDKVHVSSKMRVNIDGQDRLTQTHIDVHVFDGVIKTWTMHIE”, the protease stability score stood at 1.01.
In turn, “DEDKESLTRFWRMWVELNQTGDEDSLLKMFDPHVKIDINGRDLHGRELFAEEHKKFREEMGIDHFEFEIHRFEVQGDKANLDAKVTIRIGDKFHQLDLHIILHKVNGRWVLHSVKIR” gave a protease stability score of 1.22.
As to “DEDKESTDKMLELMLHLIKTGDFEIFEHLFDPNVRVNVGDKERVGWKEALKFRRQWRLHHMEVRDVHKVGDKMHVDSRIDGSVNGVREEDRTEIILVKYDGRWFITSIEFH”, the protease stability score was found to be 0.99.
Regarding “DEDKEWAHRILEHFLDNLRTGNEERLEELADPNTRVVIDGQEEHGMHVFNTLHKELRIDRIHLTSWDIQGDKLHLDVRVDGTFNGQREVTRVHIYFRVVNGRVKDIQIHVI”, the protease stability score came to 1.8.
The value for “DEDKEYLREVLEVLKHMWDTGDERELSKLADPHTRVEINGVKFIGMEEFVRIMQELTKRADHMENRVERNIYQGDYVLVRTRLILKIGEKDFEREVDIFVRKFNGRWLIEELKFH” was 1.37; that for “DEDKHLARHLVDLIWESLKTGNEKLSKSLADPNVRIIVGDKEVVGRERVEKWLEKVMHEIRVKDLDERHVDVQGDKVNVYVDIHGNFDGKDDTTHFYFDIKKVNGVWLIERYEVH” was 0.958.
With “DEDKHLIETFLERLERILKTGDEEDERRLADPHAKLVQGDKILHGREELIRWLRELGAKHVRLHISHLDVQGDKVETDLRLIIIQGDKEYEKDMKVHVLKVDGRWLLKSIIVE”, the protease stability score turned out to be 2.08.
Regarding “DEDKHLSDYAMELELHAIKTGDEDLWRELIDPNARLIVGDKTFHGWEHLVTFMVSLGVKHVKLKDLKIQGDKMHSKLEIEFDGRTRTYHVVSLKVDGRWVIESVEVR”, the protease stability score came to 1.06.
In turn, “DEDKHLSQLAIELLHRFLWTGDEHDLEHLMDPNAKLEQGDKTLHGRELVLEFFDHLVEEAGITKVDHKLRRIETYGNKVNIHGDLHVNGRTIRIEIIAVKINGKWVVRSVRIK” returned a protease stability score of 1.21.
“DEDKHQLDEATKVWLELFLTGNEEELLKLADPDVRIEVDGKHFHGREVMLKLMQEWKHRLGINVDELKRTEIEVIDGKAHVHLDGELYIDGKTFRLDIEVVYEKIDGRWRLKKVRFDIR” returned a protease stability score of 2.15.
The value for “DEDKHVVEEFEKLMSHSMATGDEESLLRLADPNTRIVIGDKELHGMDLYLRWHVQHWRELGVDRVKVEVRVRDVRVVDGKVHVIGELIFRFDGRTQSHDVELEIVKINGKWVLKQINLK” was 2.25.
Take “DEDKKELEEMFRILKEMWETGDWREESRMVDPHARVDINGVELHGREFIMEHIHRVKNMRFEIKRFDVVNGVLEIVGELHQGDKKHRVTIHALKFDGKWLQETVIIG”: the protease stability score worked out at 1.6.
In the case of “DEDKKFIDEYLKLLEDSIETGDWRNHNELLDPNALVLVNGVELHGRELAVTHTEKFLKHMGVKHYRLHEVDIQGEKVHIHSKAHVDGRTFDLEFISHKIDGRWLMSEVRIREN”, the protease stability score came to 1.24.
Regarding “DEDKKHALEMAEMLFELIWTGDEHMLKELMDPNTRLFFNGRETHGWEFLSRELIHLRHRSDFRIRDVRIIGDYLHVDGEFHTILNINGVDIELHLHMEIVLFKIDGRWVVHEIRFL”, the protease stability score stood at 1.72.
Under “DEDKKITDRAFEIFIHNLYTGNEEDLHELADPNVRHIYGDWNVHGMELMTHVLWEIRMKRLNEHDLEIHIINGRAIIDLDGELDGEVNGRRHHRRIIIHVFALKIDGRWHLESMEVKTK” stands 1.35; under “DEDKKIWKHWLEIFVRWFLTGDFDKLRENADPNARSDINGKELHGMETFVEAMRELGFKHVEIHDVHIQGNKVHLDTRVLFDGQHHTTHLHVHIVNGRLKEISIEIR”, 1.26; under “DEDKKLAHESFRIWLHWMRTGDEKMMEELMDPNTRTYFEGHSDHGRSAARQYANRIDHIHHIHVHHIEIQGDKVEVDGRLDGVVNGKRIDVRIVIESVKVNGKWIVRSIEEH”, 1.41.
In the case of “DEDKKLHHEALEVWERVLKTGNFRIESEYLDPHARNEFEGRHFHGRELFHELNEELGVENVRFHHFHVHDLETFNGRILMRFHMEGEINGQQFNVEVKVDTEKYDGVWFTRSFVER”, the protease stability score came out at 0.38.
Under “DEDKKLVEWVLRMLFEALRTGDEHALNNLFDPNVRIEQGDKRFHGREELIRLFHILGIDHIIIEDKDIKVFDGQLEIDGREVLIFDGRRFEIDMKIYIHKINGRWHVKSVHKD” stands 1.78; under “DEDKKRSEEISKTMIEAMETGDEDRLHELLDPHVRMEIRIGDKHIIDHGREMMLHWSRRYPNLQFRLSHIDVQGDKIHAHWLVHIGDKTRDVELELQVVDGQIHSIHLRIR”, 1.52; under “DEDKKVAELVMRLWEHTQRTGDPDMMSKLADPNVRVDVNGREIHGRERLFEHLEHMRINHFRLRDREIHVQGDYVKIRIEGELDGDINGREDRHRIELIIVVEKINGRWFMTEVIVIVK”, 1.37.
The value for “DEDKKVFETALRILIHYERTGDWELLHRLADPNTRMIQGDKLHIGREKAKEFINKWTEEMRPTDVRIDHVEIINGRIHIEGTTHGDVNGQRHDLEVHILSIKVDGRWRLKEFELK” was 1.2.
In turn, “DEDKKWVDEMIRLLLEYWRTGDEERIRQLADPNVRTHINGKEIHGMEIHLQYLREFMETFGVDHVELRIHHKDIQGDKIHLHVEIIYTVGDKEHRQEVHFRARKINGKWMIEHVEIK” yielded a protease stability score of 1.25.
The value for “DEDKQHAEKVWRLFSKFVNTGDEESLNRLFDPDVKLRVGDKEFHGREEFVKFMSELYRRIDHVHWHFSHIEVVGEYIIIHGHTIFEVGDKKDSRDTRLIMFKVNGRWHIHHIRIE” was 2.33; that for “DEDKQWIEEFIELHLRELETGDEQRVDENLDPNVKLRINGKEVHGRERISHLLKELLRKVKNLKVELHDIRVQGDFLEIEGTLRIGDKELDLYVIAHKVNGKWIVKERRIH” was 1.23.
For the sequence “DEDKRHADRWVDELRRVMLTGDFDTYVEMLDPHVRIEVGDKVIHGREDLIKFMRERLDRLGYERVEIRIEVSDREKQGDKIELHGTLHLFIGDKEHTHKIRIWIRKVNGQWIAESERVQ”, the protease stability score was found to be 1.71.
“DEDKTNLDMALRLLKEVTETGDEETLLKMMDPNVRIIINGRDVHGRENAERFATEWSRKVKNATLEVKDFHSQGEKVHLLGHDIFNGREIEFRIIWVKYNGRWFIHEIIFI” showed a protease stability score of 1.3.
For the sequence “DEDLEESHYAIEYLIRLFETGDWDTVDRFFDPRTRLRVNGKNHHGREEVTEFVEDILKRYDHKQFTFTHVEFQGEKIILHGKLHLDINGVHFEHDFILIIKKIDGRWYVDEIHIS”, the protease stability score was determined as 1.39.
Under “DEDLEETRKLIELLTRAFFTGDEDEMKNLADPSVRIIINGREVHGMDEWVRLLEEIRLEDVHSNLRDIRYFNGVVEVDGEFRLDGNINGRRFHHVFDLRLYVIKVNGRWRVKSWRNI” stands 1.83; under “DEDLERARHAIEELIENWRTGNFREIERLMDPNVRIIIGDKTLHGRESMHRFVEEARLEHFELRHVSIVNGRVHVHGTEDWRIGDKRETREVRIVIHKVDGRWNFEFKIIH”, 0.983.
